Values quoted from earlier work in publication PMC10696404.
pKd: −log10 of the molar value. Values joined by “and” are separate entries in the source; they are usually repeats but may differ in a detail not shown here. Identical values can stand only once.

Tests used:
NRP1 (Homo sapiens) = NRP1 (Homo sapiens) (UniProt O14786); assay: SPR
CD146 ECD (Homo sapiens) = CD146 ECD (Homo sapiens) (UniProt P43121); assay: bio-layer interferometry
DLL4 (Homo sapiens) = DLL4 (Homo sapiens) (UniProt Q9NR61); assay: SPR
JAG1 (Homo sapiens) = JAG1 (Homo sapiens) (UniProt P78504); assay: SPR
JAG1 (Homo sapiens), sequence (P78504 34-1218): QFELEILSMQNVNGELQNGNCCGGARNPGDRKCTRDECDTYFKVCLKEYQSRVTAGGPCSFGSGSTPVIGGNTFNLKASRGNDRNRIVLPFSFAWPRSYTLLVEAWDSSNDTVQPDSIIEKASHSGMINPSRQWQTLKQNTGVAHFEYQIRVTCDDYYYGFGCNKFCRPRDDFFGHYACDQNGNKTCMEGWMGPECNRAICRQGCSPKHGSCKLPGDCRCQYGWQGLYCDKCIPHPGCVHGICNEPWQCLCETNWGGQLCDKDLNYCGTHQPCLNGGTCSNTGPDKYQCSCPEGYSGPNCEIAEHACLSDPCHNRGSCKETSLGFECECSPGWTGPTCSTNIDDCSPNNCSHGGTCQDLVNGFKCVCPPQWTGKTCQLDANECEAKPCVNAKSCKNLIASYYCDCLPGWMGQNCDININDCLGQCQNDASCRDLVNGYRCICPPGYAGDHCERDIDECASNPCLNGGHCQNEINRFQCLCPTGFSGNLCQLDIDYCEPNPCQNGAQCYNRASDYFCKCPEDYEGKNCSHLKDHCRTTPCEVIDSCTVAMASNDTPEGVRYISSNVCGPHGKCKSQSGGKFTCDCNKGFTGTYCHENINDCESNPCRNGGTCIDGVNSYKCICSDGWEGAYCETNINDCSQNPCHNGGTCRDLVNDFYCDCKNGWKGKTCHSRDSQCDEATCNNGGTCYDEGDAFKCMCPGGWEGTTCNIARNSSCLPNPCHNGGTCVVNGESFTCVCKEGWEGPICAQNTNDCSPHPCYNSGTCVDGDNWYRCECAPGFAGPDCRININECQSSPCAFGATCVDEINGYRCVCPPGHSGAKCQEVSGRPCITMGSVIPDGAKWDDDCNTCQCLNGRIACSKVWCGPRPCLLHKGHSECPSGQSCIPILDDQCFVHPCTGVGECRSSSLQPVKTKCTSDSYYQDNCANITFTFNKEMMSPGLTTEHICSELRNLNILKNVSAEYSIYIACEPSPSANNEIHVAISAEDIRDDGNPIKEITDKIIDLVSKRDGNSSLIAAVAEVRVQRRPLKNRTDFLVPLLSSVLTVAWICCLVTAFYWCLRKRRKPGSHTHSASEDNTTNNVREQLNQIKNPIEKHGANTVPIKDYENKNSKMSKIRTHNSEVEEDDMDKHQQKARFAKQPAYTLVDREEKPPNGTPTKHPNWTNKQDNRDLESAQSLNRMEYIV

CD13 (Homo sapiens) = CD13 (Homo sapiens) (UniProt P15144); assay: SPR
CD13 (Homo sapiens), sequence (P15144 2-967): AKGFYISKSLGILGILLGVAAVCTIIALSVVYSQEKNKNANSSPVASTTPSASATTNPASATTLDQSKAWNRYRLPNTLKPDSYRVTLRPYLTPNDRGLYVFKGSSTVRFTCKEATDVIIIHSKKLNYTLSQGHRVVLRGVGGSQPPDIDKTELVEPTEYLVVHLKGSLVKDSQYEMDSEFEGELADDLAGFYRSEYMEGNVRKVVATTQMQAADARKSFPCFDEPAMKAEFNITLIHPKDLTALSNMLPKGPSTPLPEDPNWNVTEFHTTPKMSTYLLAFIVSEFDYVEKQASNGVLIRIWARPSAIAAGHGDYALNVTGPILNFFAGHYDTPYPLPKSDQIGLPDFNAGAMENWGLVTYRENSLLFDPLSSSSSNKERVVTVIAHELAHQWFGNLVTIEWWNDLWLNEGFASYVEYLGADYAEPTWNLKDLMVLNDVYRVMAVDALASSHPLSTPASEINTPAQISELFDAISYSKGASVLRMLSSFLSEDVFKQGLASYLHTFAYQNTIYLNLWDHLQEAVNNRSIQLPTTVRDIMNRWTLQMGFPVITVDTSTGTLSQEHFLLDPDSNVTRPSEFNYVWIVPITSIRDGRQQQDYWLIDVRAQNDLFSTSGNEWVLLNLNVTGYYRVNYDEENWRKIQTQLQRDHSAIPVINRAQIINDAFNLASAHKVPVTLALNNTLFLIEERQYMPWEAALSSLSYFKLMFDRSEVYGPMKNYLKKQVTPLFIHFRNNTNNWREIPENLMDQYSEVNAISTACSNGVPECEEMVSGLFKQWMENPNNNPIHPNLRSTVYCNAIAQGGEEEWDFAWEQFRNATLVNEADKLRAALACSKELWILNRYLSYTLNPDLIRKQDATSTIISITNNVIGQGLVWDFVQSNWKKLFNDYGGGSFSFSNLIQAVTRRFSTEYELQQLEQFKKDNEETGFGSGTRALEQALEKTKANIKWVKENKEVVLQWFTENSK

CEA (Homo sapiens) = CEA (Homo sapiens) (UniProt P06731); assay: SPR
CEA (Homo sapiens), sequence (P06731 35-676): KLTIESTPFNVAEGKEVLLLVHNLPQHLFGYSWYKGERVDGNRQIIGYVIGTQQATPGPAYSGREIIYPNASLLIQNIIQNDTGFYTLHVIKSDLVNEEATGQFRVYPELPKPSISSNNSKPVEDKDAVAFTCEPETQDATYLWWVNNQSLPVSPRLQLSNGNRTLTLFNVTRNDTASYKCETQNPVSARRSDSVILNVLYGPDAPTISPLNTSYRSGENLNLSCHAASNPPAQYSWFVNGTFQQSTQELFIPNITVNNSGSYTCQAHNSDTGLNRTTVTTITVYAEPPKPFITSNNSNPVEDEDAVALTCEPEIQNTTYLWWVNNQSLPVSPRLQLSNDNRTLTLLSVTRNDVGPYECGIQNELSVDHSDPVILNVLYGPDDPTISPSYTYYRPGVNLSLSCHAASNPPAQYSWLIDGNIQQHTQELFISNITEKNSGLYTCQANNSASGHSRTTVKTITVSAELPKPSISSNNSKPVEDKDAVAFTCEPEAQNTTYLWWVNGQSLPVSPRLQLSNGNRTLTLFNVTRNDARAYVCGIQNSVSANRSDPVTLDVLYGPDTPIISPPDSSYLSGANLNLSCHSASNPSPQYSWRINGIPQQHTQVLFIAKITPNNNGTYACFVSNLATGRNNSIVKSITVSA

CD44vRA (Homo sapiens) = CD44vRA (Homo sapiens) (UniProt P16070); assay: SPR
ALCAM (Homo sapiens) = ALCAM (Homo sapiens) (UniProt Q13740); assay: SPR
ALCAM (Homo sapiens), sequence (Q13740 28-583): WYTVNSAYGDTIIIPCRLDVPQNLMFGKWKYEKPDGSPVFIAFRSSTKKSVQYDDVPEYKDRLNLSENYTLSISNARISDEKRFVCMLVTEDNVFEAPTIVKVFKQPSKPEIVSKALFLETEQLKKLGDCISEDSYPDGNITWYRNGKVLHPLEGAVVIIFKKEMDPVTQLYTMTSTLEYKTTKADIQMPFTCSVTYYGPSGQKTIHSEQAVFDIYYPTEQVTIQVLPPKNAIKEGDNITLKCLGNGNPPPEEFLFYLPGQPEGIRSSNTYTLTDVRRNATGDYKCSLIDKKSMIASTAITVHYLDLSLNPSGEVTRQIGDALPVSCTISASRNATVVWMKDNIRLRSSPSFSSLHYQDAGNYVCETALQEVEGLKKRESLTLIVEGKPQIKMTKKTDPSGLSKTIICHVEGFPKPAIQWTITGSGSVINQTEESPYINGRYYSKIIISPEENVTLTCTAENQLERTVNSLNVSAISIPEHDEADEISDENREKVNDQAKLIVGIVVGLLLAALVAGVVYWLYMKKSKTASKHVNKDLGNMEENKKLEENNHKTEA

CD44v3-10 (Homo sapiens) = CD44v3-10 (Homo sapiens) (UniProt P16070); assay: SPR
CD44s (Homo sapiens) = CD44s (Homo sapiens) (UniProt P16070); assay: SPR

GAL-3, sequence (P17931 2-250): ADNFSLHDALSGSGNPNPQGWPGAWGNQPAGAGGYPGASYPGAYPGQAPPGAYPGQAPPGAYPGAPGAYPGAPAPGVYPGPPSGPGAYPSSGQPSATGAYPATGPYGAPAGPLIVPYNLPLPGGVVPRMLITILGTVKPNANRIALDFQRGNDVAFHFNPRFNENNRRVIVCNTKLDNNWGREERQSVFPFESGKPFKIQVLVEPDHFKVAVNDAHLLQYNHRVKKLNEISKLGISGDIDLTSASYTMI
GAL-8, sequence (O00214 whole entry): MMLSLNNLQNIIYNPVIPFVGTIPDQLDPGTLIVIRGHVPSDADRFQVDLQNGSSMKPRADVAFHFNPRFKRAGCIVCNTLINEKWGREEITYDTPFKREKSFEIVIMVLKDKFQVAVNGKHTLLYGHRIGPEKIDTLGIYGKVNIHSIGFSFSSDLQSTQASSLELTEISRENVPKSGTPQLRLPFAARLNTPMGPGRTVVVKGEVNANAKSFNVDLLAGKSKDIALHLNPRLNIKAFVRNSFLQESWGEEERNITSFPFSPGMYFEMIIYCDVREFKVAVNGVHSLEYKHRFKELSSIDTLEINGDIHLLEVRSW
GAL-4, sequence (P56470 whole entry): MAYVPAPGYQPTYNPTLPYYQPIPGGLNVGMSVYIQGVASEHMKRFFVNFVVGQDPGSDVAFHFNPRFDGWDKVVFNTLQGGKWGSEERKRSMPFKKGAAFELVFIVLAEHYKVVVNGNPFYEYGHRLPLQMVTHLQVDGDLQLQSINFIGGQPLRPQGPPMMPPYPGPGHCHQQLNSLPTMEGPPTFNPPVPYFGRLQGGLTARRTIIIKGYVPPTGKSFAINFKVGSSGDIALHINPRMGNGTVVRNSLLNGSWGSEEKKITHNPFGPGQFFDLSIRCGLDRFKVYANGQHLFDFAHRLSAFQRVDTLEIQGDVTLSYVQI
GAL-1, sequence (P09382 2-135): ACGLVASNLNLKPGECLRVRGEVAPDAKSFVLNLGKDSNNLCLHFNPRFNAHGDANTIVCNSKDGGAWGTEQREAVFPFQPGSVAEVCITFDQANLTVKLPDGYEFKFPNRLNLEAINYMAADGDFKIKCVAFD
CD146 ECD (Homo sapiens), sequence (P43121 24-559): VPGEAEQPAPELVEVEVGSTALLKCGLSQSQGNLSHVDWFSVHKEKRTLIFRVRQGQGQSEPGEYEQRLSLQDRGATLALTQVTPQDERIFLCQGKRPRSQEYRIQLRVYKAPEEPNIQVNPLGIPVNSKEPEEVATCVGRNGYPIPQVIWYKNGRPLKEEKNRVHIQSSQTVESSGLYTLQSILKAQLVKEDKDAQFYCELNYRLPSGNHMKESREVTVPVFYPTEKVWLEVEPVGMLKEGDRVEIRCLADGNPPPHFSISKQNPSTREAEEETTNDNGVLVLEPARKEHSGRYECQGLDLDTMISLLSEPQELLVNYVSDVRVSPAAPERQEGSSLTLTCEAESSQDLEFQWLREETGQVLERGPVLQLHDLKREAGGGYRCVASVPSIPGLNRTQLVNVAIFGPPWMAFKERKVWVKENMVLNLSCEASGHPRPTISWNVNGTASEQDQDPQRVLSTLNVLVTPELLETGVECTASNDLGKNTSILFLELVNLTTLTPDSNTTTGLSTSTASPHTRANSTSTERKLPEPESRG

For GAL-1 (from UniProt P09382), the pKd (NRP1 (Homo sapiens)) is listed as 6.96.

For GAL-3 (from UniProt P17931), the pKd (CD146 ECD (Homo sapiens)) is listed as 5.96, the pKd (DLL4 (Homo sapiens)) is listed as 5.07 and the pKd (JAG1 (Homo sapiens)) is listed as 5.05. For the same substance, the pKd (CD13 (Homo sapiens)) was 6.46.

In the case of GAL-4 (from UniProt P56470), the pKd (CEA (Homo sapiens)) is listed as 7.70.

In the case of GAL-8 (from UniProt O00214), the pKd (CD44vRA (Homo sapiens)) is given as 8.24, the pKd (ALCAM (Homo sapiens)) is given as 5.50 and 5.70 and the pKd (CD44v3-10 (Homo sapiens)) is given as 7.57. The pKd (CD44s (Homo sapiens)) was 5.00.
